Laboratory results published in patent US20240092922A1.
pKd: −log10 of the molar value.

Tests used:
[1] = molecular target: monkey (Rhesus macaque) 4-1BB (r4-1BB) on transfected CHO cells (monkey (Rhesus macaque)); test: flow cytometry on CHO-r4-1BB (T) cells, negative control panel, detection with anti-mouse-IgG-Fc-PE (1:500)
[2] = molecular target: chimeric (mouse and human) 4-1BB (c4-1BB) on transfected CHO cells (chimeric (mouse and human)); test: flow cytometry on CHO-c4-1BB cells, negative control panel, detection with anti-mouse-IgG-Fc-FITC (1:100)
[3] = molecular target: mouse 4-1BB (m4-1BB) on transfected CHO cells (mouse) (UniProt P20334); test: flow cytometry on CHO-m4-1BB cells, negative control panel, detection with anti-mouse-IgG-Fc-FITC (1:100)
[4] = molecular target: human 4-1BB (h4-1BB) on transiently transfected CHO cells (human) (UniProt Q07011); test: flow cytometry on CHO cells transiently transfected with human 4-1BB, detection with anti-mouse-IgG-Fc-FITC (1:100), SSC-H against FITC; negative control panel
[5] = molecular target: Histidine-tagged human 4-1BB protein (h4-1BB-His) (human) (UniProt Q07011); test: SPR (Biacore T200), antibody on Protein A chip, h4-1BB-His injected

urelumab (antibody), sequence (VH): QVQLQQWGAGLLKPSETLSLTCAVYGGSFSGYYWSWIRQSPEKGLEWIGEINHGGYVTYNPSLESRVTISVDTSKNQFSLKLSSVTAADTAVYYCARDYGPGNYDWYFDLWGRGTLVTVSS
urelumab (antibody), sequence (VL): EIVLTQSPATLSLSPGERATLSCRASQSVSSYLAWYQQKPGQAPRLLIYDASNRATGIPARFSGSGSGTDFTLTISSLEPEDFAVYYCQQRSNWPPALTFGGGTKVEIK

percent of cells in the PE-positive gate [1] [%] | percent of cells in the FITC-positive gate [2] [%] | percent of cells in the FITC-positive gate [3] [%] | percent of cells in the FITC-positive gate [4] [%] | pKd [5] | koff [5] [s⁻¹] | kon [5] [M⁻¹ s⁻¹] | Substance
0.429 | 1.07 | 0.983 | 0.598 |  |  |  | NC
 |  |  |  | 7.35 | 0.00302 | 68100 | urelumab (antibody)
